The values that follow come from article PMC2802489.

Holding throughout (experiment): purified protein
For one series, the system named is CC=O. The note with it: 0.25 mM NADH, 50 mM MOPS pH 7.0, 37 °C, 100 nM enzyme.
In the next series the test system is CC(C)C=O. Conditions: 0.25 mM NADH, 50 mM MOPS pH 7.0, 37 °C, 100 nM enzyme.
Substrate in series [1]: CC=O
The series is classed as biochemical, Escherichia coli. Conditions: 0.25 mM NADPH, 50 mM MOPS pH 7.0, 37 °C, 100 nM enzyme.

Substrate in series [2]: CC(C)C=O
The series is classed as biochemical, Escherichia coli. The note with it: 0.25 mM NADPH, 50 mM MOPS pH 7.0, 37 °C, 100 nM enzyme.

Substrate in series [3]: CC=O
The series is classed as biochemical, Saccharomyces cerevisiae. Conditions: 0.25 mM NADH, 50 mM MOPS pH 7.0, 37 °C, 100 nM enzyme.

In the case of “AdhA (Lactococcus lactis subsp. lactis Il1403)”, in the series with CC=O, the Km was 0.5 ± 0.2 mM, the kcat was determined as 10 ± 0.3 s⁻¹ and the kcat/Km is 20900 M⁻¹ s⁻¹. In the series with CC(C)C=O, the Michaelis-Menten constant (Km) came to 9.1 ± 2.9 mM, the kcat turned out to be 6.6 ± 0.2 s⁻¹ and the kcat/Km was 800 M⁻¹ s⁻¹.

B1: YqhD (Escherichia coli K-12) (protein)
chain: NNFNLHTPTRILFGKGAIAGLREQIPHDARVLITYGGGSVKKTGVLDQVLDALKGMDVLEFGGIEPNPAYETLMNAVKLVREQKVTFLLAVGGGSVLDGTKFIAAAANYPENIDPWHILQTGGKEIKSAIPMGCVLTLPATGSESNAGAVISRKTTGDKQAFHSAHVQPVFAVLDPVYTYTLPPRQVANGVVDAFVHTVEQYVTKPVDAKIQDRFAEGILLTLIEDGPKALKEPENYDVRANVMWAATQALNGLIGAGVPQDWATHMLGHELTAMHGLDHAQTLAIVLPALWNEKRDTKRAKLLQYAERVWNITEGSDDERIDAAIAATRNFFEQLGVPTHLSDYGLDGSSIPALLKKLEEHGMTQLGENHDITLDVSRRIYEAAR
As to B1, in the series “purified protein [1]”, the Km is reported as 27.6 ± 12.4 mM, the kcat is 1.1 ± 0.1 s⁻¹ and the kcat/Km was found to be 50 M⁻¹ s⁻¹. Further, in the series “purified protein [2]”, the Km is 1.8 ± 1.3 mM and the kcat came out at 1 ± 0.1 s⁻¹.

B2: Adh2 (Saccharomyces cerevisiae S288C) (protein)
chain: SIPETQKAIIFYESNGKLEHKDIPVPKPKPNELLINVKYSGVCHTDLHAWHGDWPLPTKLPLVGGHEGAGVVVGMGENVKGWKIGDYAGIKWLNGSCMACEYCELGNESNCPHADLSGYTHDGSFQEYATADAVQAAHIPQGTDLAEVAPILCAGITVYKALKSANLRAGHWAAISGAAGGLGSLAVQYAKAMGYRVLGIDGGPGKEELFTSLGGEVFIDFTKEKDIVSAVVKATNGGAHGIINVSVSEAAIEASTRYCRANGTVVLVGLPAGAKCSSDVFNHVVKSISIVGSYVGNRADTREALDFFARGLVKSPIKVVGLSSLPEIYEKMEKGQIAGRYVVDTSK
Consider B2, for which, in “purified protein [3]”, the Km was determined as 0.14 ± 0.02 mM, the kcat amounted to 6.6 ± 0.5 s⁻¹ and the kcat/Km amounted to 46900 M⁻¹ s⁻¹.

As usually defined, the Km is the concentration of substrate that gives half-maximal velocity. By kcat is commonly meant the maximal rate divided by the concentration of active sites. By kcat/Km is commonly meant the turnover number divided by the Michaelis constant.
